In the supplement of paper PMC10266784:

B1: library; numbered along this chain (parent)
chain: MAAAAAAAAEQQSSNGPVKKSMREKAVERRSVNKEHNSNFKAGYIPIDEDRLHKTGLRGRKGNLAICVIILLFILAVINLIITLVIWAVIRIGPNGCDSMEFHESGLLRFKQVSDMGVIHPLYKSTVGGRRNENLVITGNNQPIVFQQGTTKLSVENNKTSITSDIGMQFFDPRTQNILFSTDYETHEFHLPSGVKSLNVQKASTERITSNATSDLNIKVDGRAIVRGNEGVFIMGKTIEFHMGGNMELKAENSIILNGSVMVSTTRLPSSSSGDQLGSGDWVRYKLCMCADGTLFKVQVTSQNMGCQISDNPCGNTH

Variants of: B1
Assay: SGCB cell-surface expression functional score (HA stain, bin4 vs bin1, normalised to synonymous) (log10 ratio); higher = more cell-surface SGCB (functional)
Method in brief: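 HEK293 cells stably expressing alpha-, gamma- and delta-sarcoglycan received codon-saturation libraries of HA-tagged, YFP-fused human beta-sarcoglycan by lentiviral transduction at MOI <0.1, performed in duplicate. Cells positive for YFP were sorted after 72 hours and cultured for 5–7 days, then stained on ice with Alexa Fluor 647 anti-HA and fixed. Fixed cells were sorted into four 5% intensity bins and amplicon-sequenced, and the log ratio of highest-bin to lowest-bin variant frequency, as a median over codons and transductions, gives the functional score. Per section, synonymous variants were scaled to mean 0, SD 0.5.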

SGCB cell-surface expression functional score (log10), by site and new letter:
M116: P -1.45, G -1.48, S -1.38, N -1.13, E -1.47, I -1.03, A -1.24, R -1.55, L 0.08, Q -1.26, W -1.47, D -0.59, C -1.02, T -0.8, K -1.21, V -1.02, H -1.7, Y -1.63, F 0.29
D115: I -0.89, C -1.36, G -1.39, H -0.53, K -0.97, R -1.16, L -1.17, Y -0.03, E -0.54, S -1.55, F -1.29, Q -0.98, M -1.51, V -0.75, A -1.73, W -1.77, N -0.27, T -1.39, P -1.39
S114: Q -1.66, L -1.15, Y -1.47, E -0.49, A 0.55, I 0.12, P -0.77, G -0.7, C 0.01, K -1.22, H -1.62, T -0.37, F -0.89, V -0.22, W -0.55, D -1.53, N -0.49, R -1.39, M -0.25
I119: T -0.97, V -0.21, M 0.58, K -1.36, R -0.88, P -0.94, H -1.49, Y -1.14, G -0.96, E -1.16, S -1.47, W -1.04, Q -1.26, N -1.15, C -0.49, A -0.49, D -0.97, F -1.3, L -0.19
Q112: A -0.21, S -0.17, K -0.1, V -0.18, G -0.59, F -0.97, I 0.03, W -0.83, P -1.14, L -0.73, Y -0.7, N -1.32, H 0.02, C -0.81, R 0.07, E -0.38, D -0.16, M -0.17, T -0.79
V118: C 0.74, I 0.32, G -0.31, R -0.19, P -0.73, Q -0.24, M -0.05, K 0.64, H -0.23, N -0.97, Y -0.32, S 0.19, L -0.05, F -0.06, W 0.32, T 0.29, A -0.02, E -0.21, D -0.11
K111: N -0.45, Y -0.7, R -0.25, Q -1, V -0.57, T -0.37, S -1.07, P -1.47, W 0.03
V113: T -0.1, D -0.21, R -0.07, I 0.04, Q -0.79, Y -0.42, C -0.61, H -0.84, P 0.22, S -0.27, K 0.32, M -0.22, F -0.38, L -0.01, N -0.49, E -0.5, G -0.67, A -0.4, W -1.16
G117: D -0.32, I -1.22, W -1.14, K -1.66, A -0.7, R -0.86, H -0.9, N 0.02, V -1.36, L -1.42, F -1.46, M -0.46, E -0.94, C -0.28, Q -1.06, Y -1.35, S -0.38, P -1.21, T -0.96
H120: A -0.12, G -1.08, C 0.35, F 0.08, E -0.09, D -0.59
